The labels stand for the following.
B1: Vacuolar protein sorting-associated protein 16 homolog (Homo sapiens), Q9H269 (parent)
chain: MDCYTANWNPLGDSAFYRKYELYSMDWDLKEELRDCLVAAAPYGGPIALLRNPWRKEKAASVRPVLDIYSASGMPLASLLWKSGPVVSLGWSAEEELLCVQEDGAVLVYGLHGDFRRHFSMGNEVLQNRVLDARIFHTEFGSGVAILTGAHRFTLSANVGDLKLRRMPEVPGLQSAPSCWTVLCQDRVAHILLAVGPDLYLLDHAACSAVTPPGLAPGVSSFLQMAVSFTYRHLALFTDTGYIWMGTASLKEKLCEFNCNIRAPPKQMVWCSRPRSKERAVVVAWERRLMVVGDAPESIQFVLDEDSYLVPELDGVRIFSRSTHEFLHEVPAASEEIFKIASMAPGALLLEAQKEYEKESQKADEYLREIQELGQLTQAVQQCIEAAGHEHQPDMQKSLLRAASFGKCFLDRFPPDSFVHMCQDLRVLNAVRDYHIGIPLTYSQYKQLTIQVLLDRLVLRRLYPLAIQICEYLRLPEVQGVSRILAHWACYKVQQKDVSDEDVARAINQKLGDTPGVSYSDIAARAYGCGRTELAIKLLEYEPRSGEQVPLLLKMKRSKLALSKAIESGDTDLVFTVLLHLKNELNRGDFFMTLRNQPMALSLYRQFCKHQELETLKDLYNQDDNHQELGSFHIRASYAAEERIEGRVAALQTAADAFYKAKNEFAAKATEDQMRLLRLQRRLEDELGGQFLDLSLHDTVTTLILGGHNKRAEQLARDFRIPDKRLWWLKLTALADLEDWEELEKFSKSKKSPIGYLPFVEICMKQHNKYEAKKYASRVGPEQKVKALLLVGDVAQAADVAIEHRNEAELSLVLSHCTGATDGATADKIQRARAQAQKK
partner: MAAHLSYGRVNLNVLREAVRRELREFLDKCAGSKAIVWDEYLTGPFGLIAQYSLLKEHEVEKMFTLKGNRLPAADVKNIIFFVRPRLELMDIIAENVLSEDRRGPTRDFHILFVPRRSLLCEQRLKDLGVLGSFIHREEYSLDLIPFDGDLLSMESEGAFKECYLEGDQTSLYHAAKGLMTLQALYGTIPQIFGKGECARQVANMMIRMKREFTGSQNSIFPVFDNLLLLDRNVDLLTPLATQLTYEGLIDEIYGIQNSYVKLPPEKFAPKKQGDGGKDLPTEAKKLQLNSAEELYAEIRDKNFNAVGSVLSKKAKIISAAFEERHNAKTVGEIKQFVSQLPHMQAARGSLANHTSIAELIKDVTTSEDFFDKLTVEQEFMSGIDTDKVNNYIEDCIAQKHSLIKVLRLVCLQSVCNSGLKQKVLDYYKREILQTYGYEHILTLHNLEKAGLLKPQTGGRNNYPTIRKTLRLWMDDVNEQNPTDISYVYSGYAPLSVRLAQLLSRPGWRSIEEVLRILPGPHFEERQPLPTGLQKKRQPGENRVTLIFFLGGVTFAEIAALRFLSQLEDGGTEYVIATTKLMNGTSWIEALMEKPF
B2: Vacuolar protein sorting-associated protein 33A (Homo sapiens), Q96AX1 (parent)
chain: B1 partner
partner: B1 chain

We go through six variants from IntAct's records for PubMed 23901104.

In one test the parent is B1. Conditions: with vp33a_human VPS33A.
Regarding R725E, the “effect of a mutation on the interaction” value was “disrupting interaction”.

On to A669D, for which the “effect of a mutation on the interaction” value is recorded as “decreasing interaction”.

In a further test the parent is B2. The note with it: with vps16_human VPS16, Q9H269.
Turning to MAAHLSYGRVNLNVLREAVRRELREFLDKCAGSKAIVWDEYLTGPFGLIAQYSLLKEHEVEKMFTLKGNRLPAADVKNIIFFVRPRLELMDIIAENVLSEDRRGPTRDFHILFVPRRSLLCEQRLKDLGVLGSFIHREEYSLDLIPFDGDLLSMESEGAFKECYLEGDQTSLYHAAKGLMTLQALYGTIPQIFGKGECARQVANMMIRMKREFTGSQNSIFPVFDNLLLLDRNVDLLTPLATQLTYEGLIDEIYGIQNSYVKLPPEKFAPKKQGDGGKDLPTEAKKLQLNSAEELYAEIRDKNFNAVGSVLSKKAKIISAAFEERHNAKTVGEIKQFVSQLPHMQAARGSLANHTSIAELIKDVTTSEDFFDKLTVEQEFMSGIDTDKVNNYIEDCIAQKHSLIKVLRLVCLQSVCNSGLKQKVLDYYKREILQTYGPEHILTLHNLEKAGLLKPQTGGRNNYPTIRKTLRLWMDDVNEQNPTDISYVYSGYAPLSVRLAQLLSRPGWRSIEEVLRILPGPHFEERQPLPTGLQKKRQPGENRVTLIFFLGGVTFAEIAALRFLSQLEDGGTEYVIATTKLMNGTSWIEALMEKPF [Y438P], the “effect of a mutation on the interaction” value is listed as “disrupting interaction strength”.

Take MAAHLSYGRVNLNVLREAVRRELREFLDKCAGSKAIVWDEYLTGPFGLIAQYSLLKEHEVEKMFTLKGNRLPAADVKNIIFFVRPRLELMDIIAENVLSEDRRGPTRDFHILFVPRRSLLCEQRLKDLGVLGSFIHREEYSLDLIPFDGDLLSMESEGAFKECYLEGDQTSLYHAAKGLMTLQALYGTIPQIFGKGECARQVANMMIRMKREFTGSQNSIFPVFDNLLLLDRNVDLLTPLATQLTYEGLIDEIYGIQNSYVKLPPEKFAPKKQGDGGKDLPTEAKKLQLNSAEELYAEIRDKNFNAVGSVLSKKAKIISAAFEERHNAKTVGEIKQFVSQLPHMQAARGSLANHTSIAELIKDVTTSEDFFDKLTVEQEFMSGIDTDKVNNYIEDCIAQKHSLIKVLRLVCLQSVCNSGLKQKVLDYYKREILQTYGDEHILTLHNLEKAGLLKPQTGGRNNYPTIRKTLRLWMDDVNEQNPTDISYVYSGYAPLSVRLAQLLSRPGWRSIEEVLRILPGPHFEERQPLPTGLQKKRQPGENRVTLIFFLGGVTFAEIAALRFLSQLEDGGTEYVIATTKLMNGTSWIEALMEKPF [Y438D]: the “effect of a mutation on the interaction” value was “disrupting interaction”.

With MAAHLSYGRVNLNVLREAVRRELREFLDKCAGSKAIVWDEYLTGPFGLIAQYSLLKEHEVEKMFTLKGNRLPAADVKNIIFFVRPRLELMDIIAENVLSEDRRGPTRDFHILFVPRRSLLCEQRLKDLGVLGSFIHREEYSLDLIPFDGDLLSMESEGAFKECYLEGDQTSLYHAAKGLMTLQALYGTIPQIFGKGECARQVANMMIRMKREFTGSQNSIFPVFDNLLLLDRNVDLLTPLATQLTYEGLIDEIYGIQNSYVKLPPEKFAPKKQGDGGKDLPTEAKKLQLNSAEELYAEIRDKNFNAVGSVLSKKAKIISAAFEERHNAKTVGEIKQFVSQLPHMQAARGSLANHTSIAELIKDVTTSEDFFDKLTVEQEFMSGIDTDKVNNYIEDCIAQKHSLIKVLRLVCLQSVCNSGLKQKVLDYYKREILQTYGYEHKLTLHNLEKAGLLKPQTGGRNNYPTIRKTLRLWMDDVNEQNPTDISYVYSGYAPLSVRLAQLLSRPGWRSIEEVLRILPGPHFEERQPLPTGLQKKRQPGENRVTLIFFLGGVTFAEIAALRFLSQLEDGGTEYVIATTKLMNGTSWIEALMEKPF [I441K], the “effect of a mutation on the interaction” value was “disrupting interaction”.

As for MAAHLSYGRVNLNVLREAVRRELREFLDKCAGSKAIVWDEYLTGPFGLIAQYSLLKEHEVEKMFTLKGNRLPAADVKNIIFFVRPRLELMDIIAENVLSEDRRGPTRDFHILFVPRRSLLCEQRLKDLGVLGSFIHREEYSLDLIPFDGDLLSMESEGAFKECYLEGDQTSLYHAAKGLMTLQALYGTIPQIFGKGECARQVANMMIRMKREFTGSQNSIFPVFDNLLLLDRNVDLLTPLATQLTYEGLIDEIYGIQNSYVKLPPEKFAPKKQGDGGKDLPTEAKKLQLNSAEELYAEIRDKNFNAVGSVLSKKAKIISAAFEERHNAKTVGEIKQFVSQLPHMQAARGSLANHTSIAELIKDVTTSEDFFDKLTVEQEFMSGIDTDKVNNYIEDCIAQKHSLIKVLRLVCLQSVCNSGLKQKVLDYYDREILQTYGYEHILTLHNLEKAGLLKPQTGGRNNYPTIRKTLRLWMDDVNEQNPTDISYVYSGYAPLSVRLAQLLSRPGWRSIEEVLRILPGPHFEERQPLPTGLQKKRQPGENRVTLIFFLGGVTFAEIAALRFLSQLEDGGTEYVIATTKLMNGTSWIEALMEKPF [K429D], the “effect of a mutation on the interaction” value is listed as “disrupting interaction”.
